Substrate: C[C@]12CC[C@@H]3c4ccc(O)cc4CC[C@H]3[C@@H]1CC[C@@H]2O[C@@H]1O[C@H](C(=O)O)[C@@H](O)[C@H](O)[C@H]1O
Assay: cells, lysate or membranes
Format: cell-based, Homo sapiens

B1: Organic anion transporting polypeptide (OATP) 1B1 (Homo sapiens) (protein)
chain: MDQNQHLNKTAEAQPSENKKTRYCNGLKMFLAALSLSFIAKTLGAIIMKSSIIHIERRFEISSSLVGFIDGSFEIGNLLVIVFVSYFGSKLHRPKLIGIGCFIMGIGGVLTALPHFFMGYYRYSKETNINSSENSTSTLSTCLINQILSLNRASPEIVGKGCLKESGSYMWIYVFMGNMLRGIGETPIVPLGLSYIDDFAKEGHSSLYLGILNAIAMIGPIIGFTLGSLFSKMYVDIGYVDLSTIRITPTDSRWVGAWWLNFLVSGLFSIISSIPFFFLPQTPNKPQKERKASLSLHVLETNDEKDQTANLTNQGKNITKNVTGFFQSFKSILTNPLYVMFVLLTLLQVSSYIGAFTYVFKYVEQQYGQPSSKANILLGVITIPIFASGMFLGGYIIKKFKLNTVGIAKFSCFTAVMSLSFYLLYFFILCENKSVAGLTMTYDGNNPVTSHRDVPLSYCNSDCNCDESQWEPVCGNNGITYISPCLAGCKSSSGNKKPIVFYNCSCLEVTGLQNRNYSAHLGECPRDDACTRKFYFFVAIQVLNLFFSALGGTSHVMLIVKIVQPELKSLALGFHSMVIRALGGILAPIYFGALIDTTCIKWSTNNCGTRGSCRTYNSTSFSRVYLGLSSMLRVSSLVLYIILIYAMKKKYQEKDINASENGSVMDEANLESLNKNKHFVPSAGADSETHC
With B1 as the protein, how does the Km read?
Its Km is 7.20 ± 0.57 µM.

From paper PMC4970216
